T1: Ovalbumin (UniProt P01012 2-386)
T1 sequence: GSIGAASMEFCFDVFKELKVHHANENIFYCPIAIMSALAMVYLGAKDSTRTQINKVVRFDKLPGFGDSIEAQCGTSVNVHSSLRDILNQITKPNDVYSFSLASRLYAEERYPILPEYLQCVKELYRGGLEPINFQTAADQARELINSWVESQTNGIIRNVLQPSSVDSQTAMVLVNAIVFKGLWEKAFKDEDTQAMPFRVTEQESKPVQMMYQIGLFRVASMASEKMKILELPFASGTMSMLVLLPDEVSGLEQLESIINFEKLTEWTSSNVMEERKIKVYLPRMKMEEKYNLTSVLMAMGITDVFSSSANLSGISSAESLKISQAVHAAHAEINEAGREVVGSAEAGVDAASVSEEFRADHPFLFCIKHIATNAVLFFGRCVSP


These binders were tested against T1, Ovalbumin (assay: ELISA, periplasmic extract on coated Ovalbumin).

Binder	binding result
g060c04 (Fab, V domains shown) VH: QMQLVQSGAEVKKPGSSVKVSCQSSGGPPKSYTLSWVRQAPGQGPEWMGGIILIFGPPNYAQKFQDRLTITADKSTNTVYMELSSLRSDDTAMYYCVTAPDDTGTILARHNRYYFDSWGQGTLVTVS VL: EIVLTQSPGTLSLSPGQRATLSCRASQSVNRDYLAWYQQKPGQAPRLLIYGASSRATGIPDRFSGSGSGTDFTLTISRLERDDFAVYFCHQYGSSPNTFGQGTKLEIK	no binding (tested: 10 µg/ml Ovalbumin coat)
g060e05 (Fab, V domains shown) VH: QVQLVESGAEVKKPGSSVKVSCKSSGGYVFSWVRQAPGQGLEWMGGIISNFRTAEYARKFQGRVTMTADTSTNTIYMELTSLTSEDTAVYFCVSAPRDTSTIAARFNRYFFDTWGQGTLVTVS VL: EIVLTQSPGTLSLSPGERATLSCRASRSVNSNNLAWYQQKPDQAPRLLMYGASSRATGIPDRFTGSGSGTDFTLTISRLEPEDFAVYYCHQYGASDNTFGQGTKLEIK	no binding (tested: 10 µg/ml Ovalbumin coat)
g060g09 (Fab, V domains shown) VH: KVQLVQSGAEVKKPGSSVKVSCKSSGGYVFSWVRQAPGQGLEWMGGIISNFHTAEYAQKFQGRVTMTADTSTNTIYMELTSLTSEDTAVYFCVSAPRDTSTIAARFNRYFFDTWGQGTLVTVS VL: EIVLTQSPGTLSLSPGERATLSCRASRSVYSNNLAWYQQKPDQAPRLLMYGASSRATGIPDRFTGSGSGTDFTLTISRLEPEDFAVYYCHQYGASDNTFGQGTKLEIK	no binding (tested: 10 µg/ml Ovalbumin coat)
g060f03 (Fab, V domains shown) VH: QVQLVQSGGGLVKPGGSLRLSCAASGFTFSNAWMSWVRQAPGKGLEWVGHVKSMTDGGTTDYAAPVKGRFTISRDDSENTLYLQMNSLKTDDTAVYYCTTHDYWGQGTLVTVS VL: EIVMTQSPPFLSASVGDRVTITCRASQGLSTYLAWYQVKPGKAPKLLIYAASTLQSGVPSRFSGSGSGTEFTLTINSLQPEDFATYYCQQLDTYPLTLGGGTKVEIK	no binding (tested: 10 µg/ml Ovalbumin coat)
g060c03 (Fab, V domains shown) VH: KVQLVESGGGLVKPGGSLRLSCAASGSSFSNNNMNWVRQTPGKGLEWVASISFGSHYISYADSVKGRFTISRDNARNAVYLQMNSLRVEDTAVYYCTRCRGGTRTYYYMDVWGKGTLVTVS VL: EIVMTQSPGTLALSPGDRATLSCGASQSVFGDFLAWYQHKPGQAPRLLIYGASTRATGIPDRFSGSGAGTDFTLTISRLEPEDFAVYFCQQYGDSVFTFGQGTKLEIK	no binding (tested: 10 µg/ml Ovalbumin coat)
g060d08 (Fab, V domains shown) VH: KVQLVESGGGLVKPGGSLRLSCAASGFSFSNNNMNWVRQTPGKGLEWVASISFGSHYISYADSVKGRFTISRDNARNAVYLQMNSLRVEDTAVYYCTRCRGGTRTYYYMDVWGKGTMVTVS VL: DVVMTQSPGTLALSPGDRATLSCGASQSVFGDFLAWYQHKPGQAPRLLIYVASTRATGIPDRFSGSGAGTDFTLTISRLEPEDFAVYFCQQYGDSVFTFGQGTKLEIR	no binding (tested: 10 µg/ml Ovalbumin coat)
g060f06 (Fab, V domains shown) VH: QVQLQQSGGGLVKPGGSLRLSCAASGFSFSNNNMNWVRQTPGKGLEWVASISFGSHYISYADSVKGRFTISRDNARNAVYLQMNSLRVEDTAVYYCTRCRGGTRTYYYMDVWGKGTLVTVS VL: EIVMTQSPGTLALSPGDRATLSCGASQSVFGDFLAWYQHKPGQAPRPLIYGASTRATGIPDRFSGSGAGTDFTLTISRLEPEDFAVYFCQQYGDSVFTFGQGTKLEIK	no binding (tested: 10 µg/ml Ovalbumin coat)
g060b12 (Fab, V domains shown) VH: QVQLVQSGGGLVKPGGSLRLSCAASGFSFSNNNMNWVRQTPGKGLEWVASISFGSHYISYADSVKGRFTISRDNARNAVYLQMNSLRVEDTAVYYCTRCRGGTRTYYYMDVWGKGTLVTVS VL: EIVLTQSPGTLALSPGDRATLSCGASQSVFGDFLAWYQHKPGQAPRLLIYGASTRATGIPDRFSGSGAGTDFTLTISRLEPEDFAVYFCQQYGDSVFTFGQGTKLGIK	no binding (tested: 10 µg/ml Ovalbumin coat)
g060a02 (Fab, V domains shown) VH: QVQLQQSGGGLVKPGGSLRLSCAASGFTFSSYSMNWVRQAPGKGLEWVSSISSSSSYIYYADSVKGRFTISRDNAKNSLYLQMNSLRAEDTAVYYCARRPGWAATRAAGAFDIWGQGTMVTVS VL: EIVLTQSPSSLSASVGDRVTITCRASQGISNYLAWYQQKPGKVPKLLIYAASTLQSGVPSRFSGSGSGTDFTLTISSLQPEDVATYYCQKYNSAPYTFGQGTKLEIK	no binding (tested: 10 µg/ml Ovalbumin coat)
g060d03 (Fab, V domains shown) VH: QMQLVQSGAEVKKPGTSVRVSCKTSGGYVFSWVRQAPGQGPEWMGGIITNFGTTNYAQKFQGRVTITADKSTNTVYMDLSNLTSEDTAVYYCARAPRGTSTIAARFNRYFFDSWGQGTLVTVS VL: DIQMTQSPGTLSLSPGERATLSCRASQSVNSDNLAWYQQKPGQAPRLLMSGATSRATDVPDRFSGSGSGTDFTLTISRLEPEDFAVYYCHQYGSSDNTFGQGTKLEIK	no binding (tested: 10 µg/ml Ovalbumin coat)
g060b07 (Fab, V domains shown) VH: EVQLVESGAEVKKPGTSVRVSCKTSGGYVFSWVRQAPGQGPEWMGGIITSFGTTSYAQKFQGRVTITADKATNTVYMDLSDLTSEDTAIYYCAKAPRGTSTIAARFNRYFFDSWGQGTLVTVS VL: not shown	no binding (tested: 10 µg/ml Ovalbumin coat)
g060f02 (Fab, V domains shown) VH: KVQLVQSGAEVKKPGTSVRVSCKTSGGYVFSWVRQAPGHGPEWMGGIITNFGTATYAQKFQGRVSITADTSTNTFYMDLNNLKSDDTAVYYCASAPRDTSTIAARFNRYFFDFWGPGTLVTVS VL: DVVMTQSPGTLSLSPGERATLSCRASQSVNSNNLAWYQQKPGQAPRLLVSGATNRATDIPDRFSGSGSGTDFTLTISRLEPEDFAVYYCHQYGSSENTFGQGTKLEIR	no binding (tested: 10 µg/ml Ovalbumin coat)
g060b05 (Fab, V domains shown) VH: QVQLVQSGAEVKKLGTSVRVSCKTPGGYVFSWVRQAPGQGPEWMGGIITNFGTTNYARKFQGRITVTADKSTNTVYMDLSNLASEDTAVYYCARAPRGTSTIAARFNRYFFDSWGQGTLVTVS VL: not shown	no binding (tested: 10 µg/ml Ovalbumin coat)
g060f08 (Fab, V domains shown) VH: KVQLVQSGAEVKKPGTSVRVSCKTSGGYVFSWVRQAPGQGPEWMGGIITNFGTTNYAQKFQGRVTITADKSTNTVYMDLSNLTSEDTAVYYCARAPRGTSTIAARFNRYFFDSWGQGTLVTVS VL: DVVMTQSPGTLSLSPGERATLSCRASQSVNSDNLAWYQQKPGQAPRLLMSGATSRATDIPDRFSGSGSGTDFTLTISRLEPEDFAVYYCHQYGSSDNTFGQGTKLEIK	no binding (tested: 10 µg/ml Ovalbumin coat)
g060f04 (Fab, V domains shown) VH: KVQLVQSGAEVKKPGTSVRVSCKTPGGYVFSWVRQAPGQGPEWMGGIITNFGTTNYARKFQGRITVTADKSTNTVYMDLSNLASEDTAVYYCARAPRGTSTIAARFNRYFFDSWGQGTLVTVS VL: not shown	no binding (tested: 10 µg/ml Ovalbumin coat)
g060d07 (Fab, V domains shown) VH: EVQLVQSGAEVKKPGTSVRVSCKTPGGYVFSWVRQAPGQGPEWMGGIITNFGTTNYARKFQGRITVTADKSTNTVYMDLSNLASEDTAVYYCARAPRGTSTIAARFNRYFFDSWGQGTLVTVS VL: not shown	no binding (tested: 10 µg/ml Ovalbumin coat)

— US20070141048A1 (SYMPHOGEN A S, published 2007)
